Results: publication PMC8223533

Key:
[1] = biological target: SctV (SsaV) of the Salmonella enterica serovar Typhimurium SPI-2 injectisome, full-length, C-terminal 6xHis (Salmonella enterica serovar Typhimurium (strain 12023)) (UniProt P74856); test: SEC; Superose 6 10/300, 50 mM Tris-HCl pH 8.0, 50 mM NaCl, 0.03% DDM, 5 mM DTT; DDM-solubilised SctV
[2] = biological target: SctV (SsaV) of the Salmonella enterica serovar Typhimurium SPI-2 injectisome, full-length, C-terminal 6xHis (Salmonella enterica serovar Typhimurium (strain 12023)) (UniProt P74856); test: cryo-EM structure; DDM-solubilised full-length SctV at ~1 mg/ml on continuous carbon film; C9 symmetry imposed, refinement focused on the cytoplasmic domain; buffer pH 8.0
[3] = biological target: SctV (SsaV) of the Salmonella enterica serovar Typhimurium SPI-2 injectisome, full-length, C-terminal 6xHis (Salmonella enterica serovar Typhimurium (strain 12023)) (UniProt P74856); test: cryo-EM 2D classification; amphipol A8-35-stabilised SctV on UltrAufoil gold grids without support film; 2D class averages only
[4] = biological target: SctV (SsaV) of the Salmonella enterica serovar Typhimurium SPI-2 injectisome, full-length, C-terminal 6xHis (Salmonella enterica serovar Typhimurium (strain 12023)) (UniProt P74856); test: negative stain EM; purified SctV at about 0.05 mg/ml, 2% uranyl acetate, continuous carbon grids

Measured: stoichiometry N

SctV (SsaV) of the Salmonella enterica serovar Typhimurium SPI-2 injectisome, full-length, C-terminal 6xHis (from UniProt P74856 1-681) (natural protein)
9: all assays above
